One experiment deals with Recombinant Human β-NGF (human, UniProt P01138 122-241). The experiment can be described thus: cell-based or functional assay.
The target of experiment [1] is T1, Recombinant Human EGF R/ErbB1 (human, UniProt P00533 25-645).
T1 construct: Bought reagent
The experiment can be described thus: SPR (Biacore). As to the method: (§1) The BIACORE assay (Biacore, Inc, Piscataway, N.J.) determines the affinity of antibodies or DVD-Ig with kinetic measurements of on-rate and off-rate constants. Binding of antibodies or DVD-Ig to a target antigen (for example, a purified recombinant target antigen) was determined by surface plasmon resonance-based measurements with a Biacore® 1000 or 3000 instrument (Biacore® AB, Uppsala, Sweden) using running HBS-EP (10 mM HEPES [pH 7.4], 150 mM NaCl, 3 mM EDTA, and 0.005% surfactant P20) at 25° C. All chemicals were obtained from Biacore® AB (Uppsala, Sweden) or otherwise from a different source as described in the text. For example, approximately 5000 RU of goat anti-mouse IgG, (Fcγ), fragment specific polyclonal antibody (Pierce Biotechnology Inc, Rockford, Ill.) diluted in 10 mM sodium acetate (pH 4.5) was directly immobilized across a CM5 research grade biosensor chip using a standard amine coupling kit according to manufacturer's instructions and procedures at 25 μg/ml. Unreacted moieties on the biosensor surface were blocked with ethanolamine. Modified carboxymethyl dextran surface in flowcell 2 and 4 was used as a reaction surface. Unmodified carboxymethyl dextran without goat anti-mouse IgG in flow cell 1 and 3 was used as the reference surface. For kinetic analysis, rate equations derived from the 1:1 Langmuir binding model were fitted simultaneously to association and dissociation phases of all eight injections (using global fit analysis) with the use of Biaevaluation 4.0.1 software. Purified antibodies or DVD-Ig were diluted in HEPES-buffered saline for capture across goat anti-mouse IgG specific reaction surfaces. Antibodies or DVD-Ig to be captured as a ligand (25 μg/ml) were injected over reaction matrices at a flow rate of 5 μl/min. The association and dissociation rate constants, kₒₙ (M⁻¹s⁻¹) and koff (s⁻¹) were determined under a continuous flow rate of 25 μl/min. Rate constants were derived by making kinetic binding measurements at different antigen concentrations ranging from 10-200 nM. The equilibrium dissociation constant (M) of the reaction between antibodies or DVD-Igs and the target antigen was then calculated from the kinetic rate constants by the following formula: KD=koff/kₒₙ. Binding was recorded as a function of time and kinetic rate constants were calculated.
(SPR reads the build-up and loss of mass on a sensor chip optically.)

Experiment [2] concerns the target T2, Recombinant Human ErbB3/HER3 Fc Chimera (human, UniProt P21860 20-643).
T2 construct: Bought reagent; not shown: IgG Fc part of the bought chimera
The experiment is described as follows: SPR (Biacore). As to the method: as §1

This note sets out measurements from patent US20120014957A1 (AbbVie / Abbott, published 2012).

B1: DVD1335 (bispecific antibody, human IgG1, kappa)
heavy: not shown
light: DIQMTQSPSSLSASVGDRVTITCRASEDIYNALAWYQQKPGKAPKLLIYNTDTLHTGVPSRFSGSGSGTDYTLTISSLQPEDFATYFCQHYFHYPRTFGQGTKVEIKRTVAAPQIVLSQSPAILSPSPGEKVTMTCRASSSVSYIHWFQQKPGSSPKPWIYATSNLASGVPVRFSGSGSGTSYSLTISRVEAEDAATYYCQQWTSNPPTFGGGTKLEIKRTVAAPSVFIFPPSDEQLKSGTASVVCLLNNFYPREAKVQWKVDNALQSGNSQESVTEQDSKDSTYSLSSTLTLSKADYEKHKVYACEVTHQGLSSPVTKSFNRGEC
B1: the “N-Terminal VD NGF Inhibition Assay EC50” value with Recombinant Human β-NGF worked out at 0.3 pM.

B2: DVD1313 (bispecific antibody, human IgG1, lambda)
heavy: not shown
light: DIQMTQSPSSLSASVGDRVTITCRASEDIYNALAWYQQKPGKAPKLLIYNTDTLHTGVPSRFSGSGSGTDYTLTISSLQPEDFATYFCQHYFHYPRTFGQGTKVEIKRTVAAPQSVLTQPPSVSAAPGQKVTISCSGSSSNIENNHVSWYQQLPGTAPKLLIYDNNKRPSGIPDRFSGSKSGTSATLGITGLQTGDEADYYCETWDTSLSAGRVFGGGTKLTVLGQPKAAPSVTLFPPSSEELQANKATLVCLISDFYPGAVTVAWKADSSPVKAGVETTTPSKQSNNKYAASSYLSLTPEQWKSHRSYSCQVTHEGSTVEKTVAPTECS
On to B2, for which the “N-Terminal VD NGF Inhibition Assay EC50” value in the experiment with Recombinant Human β-NGF was determined as 0.9 pM.

B3: DVD1333 (bispecific antibody, human IgG1, kappa)
heavy: not shown
light: DIQMTQSPSSLSASVGDRVTITCRASEDIYNALAWYQQKPGKAPKLLIYNTDTLHTGVPSRFSGSGSGTDYTLTISSLQPEDFATYFCQHYFHYPRTFGQGTKVEIKRTVAAPQAVLTQPSSLSAPPGASASLTCTLRSGFNVDSYRISWYQQKPGSPPQYLLRYKSDSDKQQGSGVPSRFSGSKDASANAGILLISGLQSEDEADYYCMIWHSSAWVFGGGTKLTVLRTVAAPSVFIFPPSDEQLKSGTASVVCLLNNFYPREAKVQWKVDNALQSGNSQESVTEQDSKDSTYSLSSTLTLSKADYEKHKVYACEVTHQGLSSPVTKSFNRGEC
Consider B3, for which the “N-Terminal VD NGF Inhibition Assay EC50” value in the experiment with Recombinant Human β-NGF is 0.6 pM.

B4: DVD1369 (bispecific antibody, human IgG1, kappa)
heavy: not shown
light: DIQMTQSPSSLSASVGDRVTITCRASEDIYNALAWYQQKPGKAPKLLIYNTDTLHTGVPSRFSGSGSGTDYTLTISSLQPEDFATYFCQHYFHYPRTFGQGTKVEIKRTVAAPDIQMTQSPSSMSVSVGDRVTITCHSSQDINSNIGWLQQKPGKSFKGLIYHGTNLDDGVPSRFSGSGSGTDYTLTISSLQPEDFATYYCVQYAQFPWTFGGGTKLEIKRTVAAPSVFIFPPSDEQLKSGTASVVCLLNNFYPREAKVQWKVDNALQSGNSQESVTEQDSKDSTYSLSSTLTLSKADYEKHKVYACEVTHQGLSSPVTKSFNRGEC
notes: DVD-Ig; also called DVD1369H; DVD1369L
What is called Kd is the concentration at which binding is half-saturated. Broadly, the koff is the first-order rate constant of dissociation. The term kon denotes the rate constant with which the complex forms. For B4, in experiment [1], the Kd was less than 2.4 pM, the koff is less than 1e-06 s⁻¹ and the kon was 410000 M⁻¹ s⁻¹. Also, in the experiment with Recombinant Human β-NGF, the “N-Terminal VD NGF Inhibition Assay EC50” value is 5.6 pM.

B5: AB063 (antibody, V domains shown)
VH: EVQLVESGGGLVQPGGSLRLSCAASGFTFSIYSMNWVRQAPGKGLEWVSYISSSSSTIYYADSVKGRFTISRDNAKNSLYLQMNSLRDEDTAVYYCARDRGDFDAFDIWGQGTMVTVSS
VL: DIQMTQSPSSLSASVGDRVTITCQASQDITNYLNWYQQKPGKAPKLLIYDASNLETGVPSRFSGSGSGTDFTFTISSLQPEDIATYNCQQCENFPITFGQGTRLEIKR
notes: Parent antibody; also called AB063VH
B5: in experiment [2], the dissociation constant Kd amounted to 1360 pM, the koff was 0.000117 s⁻¹ and the on-rate constant (kon) was 86600 M⁻¹ s⁻¹.

B6: DVD1338 (bispecific antibody, human IgG1, kappa)
heavy: not shown
light: DIQMTQSPSSLSASVGDRVTITCQASQDISNYLNWYQQKPGKAPKLLIYDASNLETGVPSRFSGSGSGTDFTFTISSLQPEDIATYFCQHFDHLPLAFGGGTKVEIKRTVAAPDIQMTQSPSSLSASVGDRVTITCRASEDIYNALAWYQQKPGKAPKLLIYNTDTLHTGVPSRFSGSGSGTDYTLTISSLQPEDFATYFCQHYFHYPRTFGQGTKVEIKRTVAAPSVFIFPPSDEQLKSGTASVVCLLNNFYPREAKVQWKVDNALQSGNSQESVTEQDSKDSTYSLSSTLTLSKADYEKHKVYACEVTHQGLSSPVTKSFNRGEC
With B6, the “C-Terminal VD NGF Inhibition Assay EC50” value with Recombinant Human β-NGF amounted to 1270 pM.

B7: DVD1320 (bispecific antibody, human IgG1, kappa)
heavy: not shown
light: DIQMTQSPSSLSASVGDRVTITCQASQDITNYLNWYQQKPGKAPKLLIYDASNLETGVPSRFSGSGSGTDFTFTISSLQPEDIATYNCQQCENFPITFGQGTRLEIKRTVAAPDIQMTQSPSSLSASVGDRVTITCRASEDIYNALAWYQQKPGKAPKLLIYNTDTLHTGVPSRFSGSGSGTDYTLTISSLQPEDFATYFCQHYFHYPRTFGQGTKVEIKRTVAAPSVFIFPPSDEQLKSGTASVVCLLNNFYPREAKVQWKVDNALQSGNSQESVTEQDSKDSTYSLSSTLTLSKADYEKHKVYACEVTHQGLSSPVTKSFNRGEC
notes: DVD-Ig; also called DVD1320H; DVD1320L
B7: in experiment [2], the Kd is less than 4.2 pM, the koff was less than 1e-06 s⁻¹ and the kon is 240000 M⁻¹ s⁻¹.

B8: DVD1362 (bispecific antibody, human IgG1, kappa)
heavy: not shown
light: QSALTQPASVSGSPGQSITISCTGTSSDVGSYNVVSWYQQHPGKAPKLIIYEVSQRPSGVSNRFSGSKSGNTASLTISGLQTEDEADYYCCSYAGSSIFVIFGGGTKVTVLGQPKAAPDIQMTQSPSSLSASVGDRVTITCRASEDIYNALAWYQQKPGKAPKLLIYNTDTLHTGVPSRFSGSGSGTDYTLTISSLQPEDFATYFCQHYFHYPRTFGQGTKVEIKRTVAAPSVFIFPPSDEQLKSGTASVVCLLNNFYPREAKVQWKVDNALQSGNSQESVTEQDSKDSTYSLSSTLTLSKADYEKHKVYACEVTHQGLSSPVTKSFNRGEC
As for B8, the “C-Terminal VD NGF Inhibition Assay EC50” value in the experiment with Recombinant Human β-NGF turned out to be 2.5 pM.

B9: DVD1315 (bispecific antibody, human IgG1, kappa)
heavy: not shown
light: DIQMTQSPSSLSASVGDRVTITCRASEDIYNALAWYQQKPGKAPKLLIYNTDTLHTGVPSRFSGSGSGTDYTLTISSLQPEDFATYFCQHYFHYPRTFGQGTKVEIKRTVAAPDVVMTQSPLSLPVTPGEPASISCRSSQSLLHSNGFNYVDWYLQKPGQSPHLLIYFGSYRASGVPDRFSGSGSGTDFTLKISRVEAEDVGVYYCMQALQTPPWTFGQGTKVEIRRTVAAPSVFIFPPSDEQLKSGTASVVCLLNNFYPREAKVQWKVDNALQSGNSQESVTEQDSKDSTYSLSSTLTLSKADYEKHKVYACEVTHQGLSSPVTKSFNRGEC
B9: in the experiment with Recombinant Human β-NGF, the “N-Terminal VD NGF Inhibition Assay EC50” value came to 2.2 pM.

B10: DVD1370 (bispecific antibody, human IgG1, kappa)
heavy: not shown
light: DIQMTQSPSSMSVSVGDRVTITCHSSQDINSNIGWLQQKPGKSFKGLIYHGTNLDDGVPSRFSGSGSGTDYTLTISSLQPEDFATYYCVQYAQFPWTFGGGTKLEIKRTVAAPDIQMTQSPSSLSASVGDRVTITCRASEDIYNALAWYQQKPGKAPKLLIYNTDTLHTGVPSRFSGSGSGTDYTLTISSLQPEDFATYFCQHYFHYPRTFGQGTKVEIKRTVAAPSVFIFPPSDEQLKSGTASVVCLLNNFYPREAKVQWKVDNALQSGNSQESVTEQDSKDSTYSLSSTLTLSKADYEKHKVYACEVTHQGLSSPVTKSFNRGEC
notes: DVD-Ig; also called DVD1370H; DVD1370L
Consider B10, for which, in experiment [1], the Kd is less than 9.1 pM, the koff was less than 1e-06 s⁻¹ and the kon stood at 110000 M⁻¹ s⁻¹. Moreover, the “C-Terminal VD NGF Inhibition Assay EC50” value with Recombinant Human β-NGF worked out at 5960 pM.

B11: DVD1314 (bispecific antibody, human IgG1, kappa)
heavy: not shown
light: QSVLTQPPSVSAAPGQKVTISCSGSSSNIENNHVSWYQQLPGTAPKLLIYDNNKRPSGIPDRFSGSKSGTSATLGITGLQTGDEADYYCETWDTSLSAGRVFGGGTKLTVLGQPKAAPDIQMTQSPSSLSASVGDRVTITCRASEDIYNALAWYQQKPGKAPKLLIYNTDTLHTGVPSRFSGSGSGTDYTLTISSLQPEDFATYFCQHYFHYPRTFGQGTKVEIKRTVAAPSVFIFPPSDEQLKSGTASVVCLLNNFYPREAKVQWKVDNALQSGNSQESVTEQDSKDSTYSLSSTLTLSKADYEKHKVYACEVTHQGLSSPVTKSFNRGEC
As for B11, the “C-Terminal VD NGF Inhibition Assay EC50” value in the experiment with Recombinant Human β-NGF stood at 0.3 pM.

B12: DVD1316 (bispecific antibody, human IgG1, kappa)
heavy: not shown
light: DVVMTQSPLSLPVTPGEPASISCRSSQSLLHSNGFNYVDWYLQKPGQSPHLLIYFGSYRASGVPDRFSGSGSGTDFTLKISRVEAEDVGVYYCMQALQTPPWTFGQGTKVEIRRTVAAPDIQMTQSPSSLSASVGDRVTITCRASEDIYNALAWYQQKPGKAPKLLIYNTDTLHTGVPSRFSGSGSGTDYTLTISSLQPEDFATYFCQHYFHYPRTFGQGTKVEIKRTVAAPSVFIFPPSDEQLKSGTASVVCLLNNFYPREAKVQWKVDNALQSGNSQESVTEQDSKDSTYSLSSTLTLSKADYEKHKVYACEVTHQGLSSPVTKSFNRGEC
Consider B12, for which the “C-Terminal VD NGF Inhibition Assay EC50” value in the experiment with Recombinant Human β-NGF stood at 874 pM.

B13: DVD1318 (bispecific antibody, human IgG1, kappa)
heavy: not shown
light: DIEMTQSPDSLAVSLGERATINCRSSQSVLYSSSNRNYLAWYQQNPGQPPKLLIYWASTRESGVPDRFSGSGSGTDFTLTISSLQAEDVAVYYCQQYYSTPRTFGQGTKVEIKRTVAAPDIQMTQSPSSLSASVGDRVTITCRASEDIYNALAWYQQKPGKAPKLLIYNTDTLHTGVPSRFSGSGSGTDYTLTISSLQPEDFATYFCQHYFHYPRTFGQGTKVEIKRTVAAPSVFIFPPSDEQLKSGTASVVCLLNNFYPREAKVQWKVDNALQSGNSQESVTEQDSKDSTYSLSSTLTLSKADYEKHKVYACEVTHQGLSSPVTKSFNRGEC
Turning to B13, the “C-Terminal VD NGF Inhibition Assay EC50” value with Recombinant Human β-NGF turned out to be 53.4 pM.
